From the nanobody polyreactivity screen of Harvey et al. (2022)

Experiment: yeast display, Sf9 membrane polyspecificity reagent, FACS + sequencing; frameworks hold sequencing errors
Procedure, shortened: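 A synthetic nanobody library was expressed on Saccharomyces cerevisiae BJ5465 by galactose induction for 36–48 hours. The library was stained for 1 hour at 4 °C with 10% biotinylated, detergent-solubilized Sf9 membrane reagent and enriched with streptavidin microbeads before FACS. Low and high (top ~1%) gates were set on anti-HA fluorescence for expression and streptavidin fluorescence for reagent binding, and each polyreactivity label reflects the gate of origin.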

Sequence | polyreactivity (PSR sort gate)
QVQLVESGGGLVQAGGSLRLSCAASGFILATYAMGCYRQAPGKERELVAAISASGSSTYYADSVKGRFTISRDNAKNTVYLQMNSLKPEDTAVYYCAASWGYGALTPDMGYWGQGTQVTVSS | low polyreactivity
QVQLVESGGGLVQAGGSLRLSCAASGFILAYYAMGWSRQAPGKERELVAAISIGSSTDYADSVKGRFTISRDNAKNTVYLQINSVKPEDTAVYDFAARDYYYEYDYWGQGTQVTVSS | low polyreactivity
QVQLVESGGGLVQAGGSLRLSCAASGFILAYYAMGWYRQSPGKERELVAAISIGSSTDYADSVKGRFTISRDNAKNTVYLQMNSLKPEDTAVYYCAARDYYYEYDYWGQGTQVTVSS | low polyreactivity
QVQLVESGGGLVQAGGSLRLSCAASGFILDFNAMGWYRQAPGKERELVAAISISGVSTYYADSVKGRFTISRDNAKNTVYLQMNSLKPEDTAVYYCAAAQDAAVYWRPGGYDYWGQGTQVTVSS | low polyreactivity
QVQLVESGGGLVQAGGSLRLSCAASGFILDRYAMGWYRQAPGKERELVASITSGGSTNYADSVKGRFTISRDNAKNTVYLQMNSLKPEDTAVYYCAAYPWRYWNHEYNYWGQGTQVTVSS | high polyreactivity
QVQLVESGGGLVQAGGSLRLSCAASGFILDYNAMGWSRQAPGKERELVASIDSGGGTNYADSVKGRFTISRDNAKNTVYLQMNSLKPEDTAVYYCAADVTLWYDYGGQGTQVTVSS | low polyreactivity
QVQLVESGGGLVQAGGSLRLSCAASGFILFPNAMGWYRQAPGKERELVAAITSGGRTNYADSVKGRFTISRDNAKNTVYLQMTSLKPEDTAVYYCAYVGYWWGYDYWGQGTQVTVSS | low polyreactivity
QVQLVESGGGLVQAGGSLRLSCAASGFILGGYAMGWYRQAPGKERELVAAISWSSGSTYYADSVKGRFTISRDNAKNTVYLQMNSLIPEDTAVYYCAAVGAYDYWGQGTQVTVSS | low polyreactivity
QVQLVESGGGLVQAGGSLRLSCAASGFILGTNAMGWYRQAPGKERELVAAISSGGGSTYYADSVMGRFTISRDNAKNTVYLQMNSQKPEDTAVYYCAADNVWGYPEDDYWGQGTQVTVSS | low polyreactivity
QVQLVESGGGLVQAGGSLRLSCAASGFILIQYAMGWYRQAPGKERELVAAITWSDTSTNYADSVKGRFTISRDNAKNTVYLQMNSLKPEDTAVYYCNADLYGAQDRRLDYYAEGYWGQGTQVTVSS | low polyreactivity
QVQLVESGGGLVQAGGSLRLSCAASGFILLDNAMGWYRQAPGKEREFVASINISGDRTFYADSVKGRFTISRDNAKNTVYLQMNSLKPEDTAVYYCAKEPGWGRRSTTAYDYWGQGTQVTVSS | low polyreactivity
QVQLVESGGGLVQAGGSLRLSCAASGFILPTYAMGWYRQAPGKERELVAAITRSGGSTYYADSVKGRFTISRDNAKNTVYLQMNSLKPEDTAVYYCAAQRLSASRPYGYWGQGTQVTVSS | high polyreactivity
QVQLVESGGGLVQAGGSLRLSCAASGFILPYYTMGWYRQAPGKERELVAAITYSGASTFYADSVKGRFTISRDNAKNTVYLQMNSLKPEDTAVYYCAKEWSGWYESPLDDGDYDYWGQGTQVTVSS | low polyreactivity
QVQLVESGGGLVQAGGSLRLSCAASGFILQRYAMGWYRKAPGKERELVAAITSSGGRTYYADSVKGRFTISRDNANNTVYLQMNSLKPEDTAVYYCNTVLVYYRMIKFEYWGQGTQVTVSS | high polyreactivity
QVQLVESGGGLVQAGGSLRLSCAASGFILQYNAMGWYRQAPGKEREFVATITGSGGSTYYADSVKGRFTISRDNAKNTVYIQMYSLKPEDTAFYYCNAETYIDLSGKFPVDYDYWGQGTQVTVSS | low polyreactivity
QVQLVESGGGLVQAGGSLRLSCAASGFILRGYDMGWYRQATGKERELVATITTGGSTYYADSVKGRFTISRDNAKNTVYLQMNSLKPEDTAVYYCAGRRRGSVGVGYANPYNYWGQGTQVTVSS | high polyreactivity
QVQLVESGGGLVQAGGSLRLSCAASGFILRYYAMGWYRQAPGKERELVAAISSGGGTYYADSVKGRFTISRDNAKNTVYLQMNSLKPEDTAVYYCAAVYWGLWHWLYTDDDGDYWGQGTQVTVSS | high polyreactivity
QVQLVESGGGLVQAGGSLRLSCAASGFILRYYVMGWYRQAPGKERELVAAISSSGGRTYYADSVKGRFTISRDNAKNTVYLQMNSLKPEDTGVYYCATSTYAYRRKSYFYTRPRFGYWGQGYQVTVSS | high polyreactivity
QVQLVESGGGLVQAGGSLRLSCAASGFILSPNTMGWYRQAPGKERALVAAISSDVSTYADSVKGRFTISRDNAKNTVYLQMNSLKPEDTAVYYCNADAFGYASYEYWGQGTQVTVSS | low polyreactivity
QVQLVESGGGLVQAGGSLRLSCAASGFILVFYARGWYRPAPGKERELVAAIDWSGTITYYADSVKGRFTISRDNAKNTVYLQMNSLKPEDTAVYYCAADGEPFYDFYYWGQGTQVTVSS | high polyreactivity
QVQLVESGGGLVQAGGSLRLSCAASGFILVGYAMGWYRKAPGKERELVAAISSGDSTNYADSVKGRFTISRDNAKNSVYLQMNSLKPEDTAVYYCAARFIFWVYDYDYWGQGTQVTLSS | low polyreactivity
QVQLVESGGGLVQAGGSLRLSCAASGFILYFNAMGWYRQAPGKDRELVAVISCTGVRTNYADSVKGRFTISRDNAKNTVYLQMNSLKPEDTAVYYCAAGYYSYRPRDYWGQGTQVTVSS | low polyreactivity

Sequence | polyreactivity (PSR sort gate)
QVQLVESGGGLVQAGGSLRLSCAASGFILYGNAMGWYRQAPGKERELVAAISRRGGSTYYADSVKGRFTISRDNAKNTVYLQMNSLKPEDTALYYCAKDGPGGGTRIYDYWGQGTQVTVSS | high polyreactivity
QVQLVESGGGLVQAGGSLRLSCAASGFILYYYALGWYRQAPGKEWEIVAAISRNGGRTYYADSVKGRFTISRDNAKNTVYLQMISLKPEDTAVDYCNKGVSRTLSSAYEYWGQGTQVTVSS | high polyreactivity
QVQLVESGGGLVQAGGSLRLSCAASGFIQDYYAMGWYRHAPGKERELDAAISSGGTDTYYADSVKGRFTVSRDTAKNTVYLQMNSLKPEDTAVYYFAADSYWSAYDYWGQGTQVTVSS | low polyreactivity
QVQLVESGGGLVQAGGSLRLSCAASGFIRGYYDMGWYRQAPGKERELVAAISSGGRTYYADSVKGRFTISRDNAKNTVYLQMNSLKPEDTAVYYFNAYAPRRRFDYWGQGTQVTVSS | high polyreactivity
QVQLVESGGGLVQAGGSLRLSCAASGFISDDYAMGWYRQAPGKERELVAAISDSGVDTYYADSVKGRFTISRDNAKNTVYLQMNSLKPEDTAVYYCNKRYVIRRRGYDYWGQGTQVTVSS | low polyreactivity
QVQLVESGGGLVQAGGSLRLSCAASGFISGSNVMGWYRQAPGKERELVAAINWSGDNTYYADSVKGRFTISRDNAKNTVYLQMNSLKPEDTAVYYCNADVYSYATPEMDYWGQGTQVTVSS | low polyreactivity
QVQLVESGGGLVQAGGSLRLSCAASGFISKYYAMVWYRQAPGKERELVAAITRSGTSTYYADSVKGRFTISRDNAKNTVYLQMNSLTPEDTAVYYCAAVSGGRTPRYYYWGQGTQVTVSS | high polyreactivity
QVQLVESGGGLVQAGGSLRLSCAASGFISRTNAMGWSRQEPGKERELVAGINSGGNTYYADSVKGRFTISRDNAKNTVYLQMNSLKPEDTADYYCAALWSLRRSRPRFDYWGQGTQVTVSS | high polyreactivity
QVQLVESGGGLVQAGGSLRLSCAASGFISSENAMGWYRQAPGKERELVAAISSGGSTNYADSVKGRFTISRDNAKNTVYLQMNSRKPEDTAVYYCAATLPGWYNEDDSWGQGTQVTVSS | low polyreactivity
QVQLVESGGGLVQAGGSLRLSCAASGFISSENAMGWYRQAPGKERELVAATSSGGSTNYADSVKGRFTISRDNAKNTVYLQMNSLKPEDTAVYYCAALFPKNLQKVGRYDYWGQGTQVTVSS | low polyreactivity
QVQLVESGGGLVQAGGSLRLSCAASGFISTINVMGCYRQAPGKERELVAAITYIDGSTFYADSVKGRFTISRDNAKNTVYFQMNSLKPEDTAVYYCASDLYLWGAVFLYVRSTGLDYWGQGTQVTVSS | low polyreactivity
QVQLVESGGGLVQAGGSLRLSCAASGFISTYYAMGWYRQAPGKERELVAAISWNGGSTYYADSVKGRFTISRDNAKNTVYLQMNSLKPEDTADYYCAAYLGKWRQFYSSDYDYWGQGTQVTVSS | low polyreactivity
QVQLVESGGGLVQAGGSLRLSCAASGFISVSNAMGWYRQAPGKERELVAAIRGSGGSTYYADSVKGRFTISRDNAKNTVYLQMNSLKPEDTAVYYCAATAYPRGSPPYNYWGQGTQVTVSS | high polyreactivity
QVQLVESGGGLVQAGGSLRLSCAASGFIVRYNAMGWYRQAPGKERELVAVITDSSDSTYYADSVKGRFTISRDNAKNTVYLQMNSLKPVDTAVYYCDTDYGYAGDYWGQGSQVTVSS | low polyreactivity
QVQLVESGGGLVQAGGSLRLSCAASGFIYARYAMGWYRQAPGKERELVAGISGGGGRTYYADSVKGRFTISRDNAKNTVYLQMNSLKPEDTAVYYCAATPQSRDRRFNYWGQGTQVTVSS | high polyreactivity
QVQLVESGGGLVQAGGSLRLSCAASGFIYDYAMGWYRQAPGKQREFVARINWSGGSTYYADSVKGRFTISRDNAKNTVYLQMNSLKPEDTAVYYCATSGWAWRTSNPYEYWGQGTQVTVSS | low polyreactivity
QVQLVESGGGLVQAGGSLRLSCAASGFIYGLYAMGWYRQAPGKERELVASISRRGGSTYSADSVKGRVTISRDNAKNTVYLQMNSLKPEDTAVYYCAVDIVSIRGYTYGYWGQGTQVTVSS | high polyreactivity
QVQLVESGGGLVQAGGSLRLSCAASGFIYHGYTMGWYSQAPGKERDLVAAITTSGTSTYYADSVKGRFTISRDNAKNTVYLQMNSLKPEDTAVYYCYDYVPGGYSRPYYYRFDHWGQGTQVTVSS | high polyreactivity
QVQLVESGGGLVQAGGSLRLSCAASGFIYKINAMGWYRQAPGKERELVARITSGGRTNYADSVKGRFTISRDNAKNTVYLQMDSLKPEDTAVYYCAARYLAYGPTGYLYGYNYWGQGTQVTVSS | high polyreactivity
QVQLVESGGGLVQAGGSLRLSCAASGFIYRVYAIGWYRQAPGKERELVAAITGNGVSTYYADSVKVRFTISRDNAKNTVYLQMNSLKPEDTAVYYCATYGRRWYSSRRLDYWGQGTQVTVSS | low polyreactivity
QVQLVESGGGLVQAGGSLRLSCAASGFIYSTYAMGWYRQAPGKERELVAAISWSGGRTNYADSVKGRFTISRDNAKNTVYLQMNSLKPEDTAVYYCAVGGERGARIGSNHRGSRYDYWGQGTQVTVSS | high polyreactivity
